# Assay results reported in patent publication US12065466B2, “Methods and compositions for protein sequencing” (Quantum-Si Incorporated, priority 2020, dated 2024).
# Tested on: amino acid at a terminal position of a polypeptide
# Assay: Amino acid binding preference of recognition proteins (Tables 1 and 2)
# Details: Table 1, ClpS proteins; amino acid identity at a terminal position of a polypeptide; inferred from literature and/or demonstrated by the inventors
# Text: It should be appreciated that these sequences and other examples described herein are meant to be non-limiting, and recognition molecules in accordance with the application can include any homologs, variants thereof, or fragments thereof minimally containing domains or subdomains responsible for peptide recognition.
row,Molecule,Binding Pref.
1,"PS396: ClpS protein, SEQ ID NO: 24 (protein) MSDNDVALKPKIKSKPKLERPKLYKVILVNDDFTPREFVIAVLKMVFRMSEETGYRVMLTAHRLGTSVVVVCARDIAETKAKEAVDFGKEAGFPLMFTTEPEE","F, W"
2,"PS397: ClpS protein, SEQ ID NO: 25 (protein) MSDNEVAPKRKTRVKPKLERPRLYKVILVNDDYTPRDFVVMVLKAIFRMSEEAGYRVMMTAHKLGTSVVVVCARDIAETKAKEATDLGKEAGFPLMFTTEPEE","F, Y, W"
3,"PS398: ClpS protein, SEQ ID NO: 26 (protein) MPLKAQNRSIVGRRDEWPPPTTQSSSETKSESKRVSDTGADTKRKTKTVPKVEKPRLYKVILVNDDYTPREFVLVVLKAVFRMSEDQGYKVMITAHQKGSCVVAVYTRDIAETKAKEAVDLAKEIGFPLMFRTEPEE","F, W"
4,"PS369: ClpS protein, SEQ ID NO: 2 (protein) MTSTLRARPARDTDLQHRPYPHYRIIVLDDDVNTFQHVVNCLVTFLPGMTRDQAWAMAQQVDGEGSAVVWTGPQEQAELYHVQLGNHGLTMAPLEPV","F, Y, W, L"
5,"PS404: ClpS protein, SEQ ID NO: 27 (protein) MPVSVTAPQTKTKTKPKVERPKLYKVILVNDDFTPREFVVRVLKAEFRMSEDQAAKVMMTAHQRGVCVVAVFTRDVAETKATRATDAGRAKGYPLLFTTEPEE","F, Y, W"
6,"PS405: ClpS protein, SEQ ID NO: 28 (protein) MVSIGAATVACAEGRPIFSGYFDWLAAMPETVTVPRTRLRPKTERPKLHKVILVNDDYTPREFVVTVLKGEFHMSEDQAQRVMITAHRRGVCVVAVFTKDVAETKATRASDAGRAKGYPLQFTTEPEE","F, Y, W"
7,"PS406: ClpS protein, SEQ ID NO: 29 (protein) MPDATTTPRTKTLTRTARPPLHKVILVNDDFTPREFVVRLLKAEFRTTGDEAQRIMITAHMKGSCVVAVFTREIAESKATRATETARAEGFPLLFTTEPEE","F, Y, W"
8,"PS407: ClpS protein, SEQ ID NO: 30 (protein) MPSNKRQMCLSDIKNSFNESGIVDWHISPRLANEPSEEGDSDLAVQTVPPELKRPPLYAVVLLNDDYTPMEFVIEILQQYFAMNLDQATQVMLTVHYEGKGVAGVYPRDIAETKANQVNNYARSQGHPLLCQIEPKD","F, Y, W, L"
9,"PS408: ClpS protein, SEQ ID NO: 31 (protein) MTDPPSKGREDVDLATRTKPKTQRPPLYKVLLLNDDFTPMEFVVHILERLFGMTHAQAIEIMLTVHRKGVAVVGVFSHEIAETKVAQVMELARRQQHPLQCTMEKE","F, Y, W, L"
10,"PS409: ClpS protein, SEQ ID NO: 32 (protein) MPARLTDIEGEPNTDPVEDVLLADPELKKPQMYAVVMYNDDYTPMEFVVDVLQNHFKHTLDSAISIMLAIHQQGKGIAGIYPKDIAETKAQTVNRKARQAGYPLLSQIEPQG","F, Y, W, L"
11,"PS410: ClpS protein, SEQ ID NO: 33 (protein) MGDDDQSSREGEGDVAFQTADPELKRPSLYRVVLLNDDYTPMEFVVHILEQFFAMNREKATQVMLAVHTQGKGVCGVYTKDIAETKAALVNDYSRENQHPLLCEVEELDDESR","F, W, L"
12,"PS411: ClpS protein, SEQ ID NO: 34 (protein) MTRPDAPEYDDDLAVEPAEPELARPPLYKVVLHNDDFTPMEFVVEVLQEFFNMDSEQAVQVMLAVHTQGKATCGIFTRDIAETKSYQVNEYARECEHPLMCDIEAAD","F, Y, W, L"
13,"PS412: ClpS protein, SEQ ID NO: 35 (protein) MATKREGSTLLEPTAAKVKPPPLYKVLLLNDDYTPMEFVVLVLKKFFGIDQERATQIMLKVHTEGVGVCGVYPRDIAHTKVEQVVDFARQHQHPLQCTMEES","F, Y, W, L"
14,"PS370: ClpS protein, SEQ ID NO: 3 (protein) MFNSLGTVLDPKKSKAKYPEARVIVLDDNFNTFQHVANCLLAIIPRMCEQRAWDLTIKVDKAGSAEVWRGNLEQAELYHEQLFSKGLTMAPIEKT","F, L"
15,"PS413: ClpS protein, SEQ ID NO: 36 (protein) MMKQCGSYFLIKAVQDFKPLSKHRSDTDVITETKIQVKQPKLYTVIMYNDNYTTMDFVVYVLVEIFQHSIDKAYQLMMQIHESGQAAVALLPYDLAEMKVDEVTALAEQESYPLLTTIEPA","F, Y, W, L"
16,"PS414: ClpS protein, SEQ ID NO: 37 (protein) MQAAGNEPPDPQNPGDVGNGGDGGNQDGSNTGVVVKTRTRTRKPAMYKVLMLNDDYTPMEFVVHVLERFFQKNREEATRIMLHVHRRGVGVCGVYTYEVAETKVTQVMDLARQNQHPLQCTIEKE","F, Y, W, L"
17,"PS415: ClpS protein, SEQ ID NO: 38 (protein) MALPETRTKIKPDVNIKEPPNYRVIYLNDDKTSMEFVIGSLMQHFSYPQQQAVEKTEEVHEHGSSTVAVLPYEMAEQKGIEVTLDARAEGFPLQVKIEPAER","F, Y, W"
18,"PS416: ClpS protein, SEQ ID NO: 39 (protein) MTSQTDTLVKPNIQPPSLFKVIYINDSVTTMEFVVESLMSVFNHSADEATRLTQLVHEEGAAVVAILPYELAEQKGMEVTLLARNNGFPLAIRLEPAV","F, Y, W, L"
19,"PS417: ClpS protein, SEQ ID NO: 40 (protein) MSNLDTDVLIDEKVKVVTTEPEKYRVILLNDDVTPMDFVINILVSIFKHSTDTAKDLTLKIHKEGSAIVGVYTYEIAEQKGIEATNESRQHGFPLQVKIERENTL","F, Y, W"
20,"PS418: ClpS protein, SEQ ID NO: 41 (protein) MSDHNIDHDTSVAVHLDVVVREPPMYRVVLLNDDFTPMEFVVELLMHFFRKTAEQATQIMLNIHHEGVGVCGTYPREIAETKVAQVHQHARTNGHPLKCRMEPS","F, Y, W, L"
21,"PS419: ClpS protein, SEQ ID NO: 42 (protein) MEKEQSLCKEKTHVELSEPKHYKVVFHNDDFTTMDFVVKVLQLVFFKSQLQAEDLTMKIHLEGSATAGIYSYDIAQSKAQKTTQMAREEGFPLRLTVEPEDN","F, Y, W, L"
22,"PS420: ClpS protein, SEQ ID NO: 43 (protein) MSDYSNQISQAGSGVAEDASITLPPERKVVFYNDDFTTMEFVVDVLVSIFNKSHSEAEELMQTVHQEGSSVVGVYTYDIAVSRTNLTIQAARKNGFPLRVEVE","F, Y, W, L"
23,"PS421: ClpS protein, SEQ ID NO: 44 (protein) MTTPNKRPEFEPEIGLEDEVGEPRKYKVLLHNDDYTTMDFVVQVLIEVFRKSETEATHIMLTIHEKGVGTCGIYPAEVAETKINEVHTRARREGFPLRASMEEV","F, Y, W, L"
24,"PS422: ClpS protein, SEQ ID NO: 45 (protein) MTQIKPQTIPDTDVISQTQSDWQMPDLYAVIMHNDDYTTMDFVVFLLNAVFDKPIEQAYQLMMQIHQTGRAVVAILPYEIAEMKVDEATSLAEQEQFPLFISIEQA","F, Y, W, L"
25,"PS371: ClpS protein, SEQ ID NO: 4 (protein) MATETIERPRTRDPGSGLGGHWLVIVLNDDHNTFDHVAKTLARVIPGVTVDDGYRFADQIHQRGQAIVWRGPKEPAEHYWEQLQDAGLSMAPLERH","F, Y, W, L"
26,"PS423: ClpS protein, SEQ ID NO: 46 (protein) MAPTPAGAAVLDKQQQRRHKHASRYRVLLHNDPVNTMEYVVESLRQVVPQLSEQDAIAVMVEAHNTGVGLVIVCDIEPAEFYCEQLKTKGLTSSIEPED","F, Y, W"
27,"PS424: ClpS protein, SEQ ID NO: 47 (protein) MSVETIEKRSTTRKLAPQYRVLLHNDDYNSMEYVVQVLMTSVPSITQPQAVNIMMEAHNSGLALVITCAQEHAEFYCETLKGHGLSSTIEPD","F, Y, W"
28,"PS425: ClpS protein, SEQ ID NO: 48 (protein) MTHYFSNILRDQESPKINPKELEQIDVLEEKEHQIILYNDDVNTFEHVIDCLVKICEHNYLQAEQCAYIVHHSGKCSVKTGSLDELVPKCNALLEEGLSAEVV","F, Y, W, L"
29,"PS426: ClpS protein, SEQ ID NO: 49 (protein) MSIIEKTQENVAILEKVSINHEIILYNDDVNTFDHVIETLIRVCNHEELQAEQCAILVHYTGKCAVKTGSFDELQPLCLALLDAGLSAEIT","F, Y, W, L"
30,"PS427: ClpS protein, SEQ ID NO: 50 (protein) MSTKEKVKERVREKEAISFNNEIIVYNDDVNTFDHVIETLIRVCNHTPEQAEQCSLIVHYNGKCTVKTGSMDKLKPQCTQLLEAGLSAEIV","F, W"
